B1: peptide HD2 (from tick evasin EVA4) / CCL4 (biotinylated, synthetic) (parent complex)
chain 1: EEDDYTAYAPLTCYFT
chain 2: APMGSDPPTACCFSYTARKLPRNFVVDYYETSSLCSQPAVVFQTKRSKQVCADPSESWVQEYVYDLELN

Variants of: B1
In the case of chain 1 Y14W, the enrichment is reported as -0.462 log2 (difference from the parental peptide). With chain 1 Y14H the enrichment was -0.0476 log2 (difference from the parental peptide). With chain 1 Y14P the enrichment was -6.84 log2 (difference from the parental peptide). In the case of chain 1 Y14M, the enrichment is reported as -2.24 log2 (difference from the parental peptide). In the case of chain 1 Y14G, the enrichment is reported as -6.07 log2 (difference from the parental peptide). In the case of chain 1 Y14A, the enrichment is reported as -3.96 log2 (difference from the parental peptide). With chain 1 Y14N the enrichment was -3.47 log2 (difference from the parental peptide). With chain 1 Y14F the enrichment was 0.581 log2 (difference from the parental peptide). chain 1 Y14Q was tested, and the enrichment was -2.97 log2 (difference from the parental peptide). For chain 1 Y14D, the enrichment was -5.1 log2 (difference from the parental peptide). chain 1 Y14R was tested, and the enrichment was -4.11 log2 (difference from the parental peptide). With chain 1 Y14S the enrichment was -3.51 log2 (difference from the parental peptide). In the case of chain 1 Y14K, the enrichment is reported as -5.73 log2 (difference from the parental peptide). chain 1 Y14E was tested, and the enrichment was -5.52 log2 (difference from the parental peptide). With chain 1 Y14L the enrichment was -2.84 log2 (difference from the parental peptide). In the case of chain 1 T16P, the enrichment is reported as 1.45 log2 (difference from the parental peptide). With chain 1 T16A the enrichment was 1.47 log2 (difference from the parental peptide). In the case of chain 1 T16L, the enrichment is reported as 0.489 log2 (difference from the parental peptide). For chain 1 T16W, the enrichment was -0.489 log2 (difference from the parental peptide). In the case of chain 1 T16M, the enrichment is reported as 0.277 log2 (difference from the parental peptide). In the case of chain 1 T16C, the enrichment is reported as -0.0497 log2 (difference from the parental peptide). With chain 1 T16F the enrichment was -0.0684 log2 (difference from the parental peptide). With chain 1 T16H the enrichment was 0.117 log2 (difference from the parental peptide). In the case of chain 1 T16R, the enrichment is reported as -0.298 log2 (difference from the parental peptide). chain 1 T16E was tested, and the enrichment was 0.827 log2 (difference from the parental peptide). With chain 1 C13N the enrichment was -7.77 log2 (difference from the parental peptide). For chain 1 C13L, the enrichment was -6.3 log2 (difference from the parental peptide). For chain 1 C13G, the enrichment was -9 log2 (difference from the parental peptide). With chain 1 C13T the enrichment was -4.09 log2 (difference from the parental peptide). For chain 1 C13P, the enrichment was -9.17 log2 (difference from the parental peptide). With chain 1 C13I the enrichment was -3.66 log2 (difference from the parental peptide). In the case of chain 1 C13K, the enrichment is reported as -8.69 log2 (difference from the parental peptide). In the case of chain 1 C13E, the enrichment is reported as -9.5 log2 (difference from the parental peptide). For chain 1 C13M, the enrichment was -2.33 log2 (difference from the parental peptide). In the case of chain 1 C13Y, the enrichment is reported as -5.99 log2 (difference from the parental peptide). For chain 1 C13A, the enrichment was -7.87 log2 (difference from the parental peptide). For chain 1 L11F, the enrichment was -0.923 log2 (difference from the parental peptide). chain 1 L11H was tested, and the enrichment was 1.71 log2 (difference from the parental peptide). In the case of chain 1 L11E, the enrichment is reported as -2.34 log2 (difference from the parental peptide). With chain 1 L11S the enrichment was -0.188 log2 (difference from the parental peptide). chain 1 L11N was tested, and the enrichment was -3.21 log2 (difference from the parental peptide). chain 1 L11P was tested, and the enrichment was -7.67 log2 (difference from the parental peptide). For chain 1 L11K, the enrichment was 1.88 log2 (difference from the parental peptide). In the case of chain 1 L11G, the enrichment is reported as -4.26 log2 (difference from the parental peptide). For chain 1 F15L, the enrichment was 0.921 log2 (difference from the parental peptide). For chain 1 F15Y, the enrichment was 0.0726 log2 (difference from the parental peptide). For chain 1 F15E, the enrichment was -1.26 log2 (difference from the parental peptide). chain 1 F15R was tested, and the enrichment was 0.256 log2 (difference from the parental peptide). For chain 1 F15N, the enrichment was -0.875 log2 (difference from the parental peptide). In the case of chain 1 F15S, the enrichment is reported as -0.0882 log2 (difference from the parental peptide). With chain 1 F15T the enrichment was 1.23 log2 (difference from the parental peptide). In the case of chain 1 F15Q, the enrichment is reported as 0.832 log2 (difference from the parental peptide). In the case of chain 1 F15H, the enrichment is reported as 0.795 log2 (difference from the parental peptide). chain 1 F15I was tested, and the enrichment was 0.969 log2 (difference from the parental peptide). chain 1 D3I was tested, and the enrichment was -3.64 log2 (difference from the parental peptide). With chain 1 D3R the enrichment was -4.7 log2 (difference from the parental peptide). chain 1 D3S was tested, and the enrichment was -2.37 log2 (difference from the parental peptide). In the case of chain 1 D3P, the enrichment is reported as -2.56 log2 (difference from the parental peptide). In the case of chain 1 D3H, the enrichment is reported as -1.73 log2 (difference from the parental peptide). With chain 1 D3Y the enrichment was -1.16 log2 (difference from the parental peptide). For chain 1 D3T, the enrichment was -2.72 log2 (difference from the parental peptide). chain 1 E2A was tested, and the enrichment was -0.79 log2 (difference from the parental peptide). For chain 1 E2K, the enrichment was -3.72 log2 (difference from the parental peptide). For chain 1 E2R, the enrichment was -4.37 log2 (difference from the parental peptide). In the case of chain 1 E2T, the enrichment is reported as -2.75 log2 (difference from the parental peptide). With chain 1 E2D the enrichment was 1.08 log2 (difference from the parental peptide). chain 1 E2L was tested, and the enrichment was -1.83 log2 (difference from the parental peptide). In the case of chain 1 E2S, the enrichment is reported as -2.25 log2 (difference from the parental peptide). In the case of chain 1 E1S, the enrichment is reported as -0.537 log2 (difference from the parental peptide). With chain 1 E1I the enrichment was -0.889 log2 (difference from the parental peptide). chain 1 E1Y was tested, and the enrichment was -1.6 log2 (difference from the parental peptide). In the case of chain 1 E1R, the enrichment is reported as -3.09 log2 (difference from the parental peptide). chain 1 E1P was tested, and the enrichment was -1.59 log2 (difference from the parental peptide). For chain 1 E1V, the enrichment was -1.21 log2 (difference from the parental peptide). In the case of chain 1 E1A, the enrichment is reported as -0.519 log2 (difference from the parental peptide).

From paper PMC11969024 (2025)
